# Laboratory results: the supplement of paper PMC9112550, “Optimization of the antimicrobial peptide Bac7 by deep mutational scanning” (BMC Biology, 2022)
# Test system: Escherichia coli TOP10
# Test: shrunken log2 fold change of peptide-encoding DNA abundance (4.5 h post-induction vs induction); higher = less antimicrobial activity (less host growth inhibition)
# Details: time post-induction: 4.5 h; library: site-saturation at positions 5, 18, 19, 20
# 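Further: peptides expressed intracellularly from a pBAD plasmid library in pooled LB shake-flask culture, induced with 0.3% L-arabinose, DNA abundance read by NGS, three biological replicates, DESeq2 with apeglm shrinkage.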
row,Sequence,shrunken log2 fold change
1,RRIRYRPPRLPRPRPRPGWYPRP,-0.344
2,RRIRCRPPRLPRPRPRPMDLPRP,-0.0384
3,RRIRIRPPRLPRPRPRPARVPRP,-0.0658
4,RRIRVRPPRLPRPRPRPGADPRP,0.163
5,RRIRIRPPRLPRPRPRPIFTPRP,0.0285
6,RRIRERPPRLPRPRPRPFKCPRP,-0.457
7,RRIRRRPPRLPRPRPRPACHPRP,0.306
8,RRIRRRPPRLPRPRPRPMGPPRP,0.135
9,RRIRSRPPRLPRPRPRPLLYPRP,-0.162
10,RRIRFRPPRLPRPRPRPKTPPRP,0.207
11,RRIRMRPPRLPRPRPRPQLLPRP,0.0491
12,RRIRKRPPRLPRPRPRPFWYPRP,0.0709
13,RRIRERPPRLPRPRPRPDTTPRP,0.0503
14,RRIRIRPPRLPRPRPRPSFEPRP,-0.507
15,RRIRFRPPRLPRPRPRPYSSPRP,-0.571
16,RRIRERPPRLPRPRPRPVDSPRP,-0.0113
17,RRIRGRPPRLPRPRPRPEYGPRP,-0.0112
18,RRIRFRPPRLPRPRPRPVDVPRP,-0.44
19,RRIRTRPPRLPRPRPRPWFVPRP,-0.243
20,RRIRARPPRLPRPRPRPYMEPRP,-0.348
21,RRIRVRPPRLPRPRPRPKLSPRP,-0.0136
22,RRIRLRPPRLPRPRPRPIFCPRP,-0.314

row,Sequence,shrunken log2 fold change
1,RRIRPRPPRLPRPRPRPQNKPRP,-0.479
2,RRIRDRPPRLPRPRPRPQPYPRP,-0.651
3,RRIRRRPPRLPRPRPRPEWKPRP,0.0796
4,RRIRNRPPRLPRPRPRPVPSPRP,0.155
5,RRIRVRPPRLPRPRPRPCEAPRP,0.0719
6,RRIRNRPPRLPRPRPRPDDRPRP,0.0384
7,RRIRDRPPRLPRPRPRPFQVPRP,-0.609
8,RRIRARPPRLPRPRPRPQPVPRP,0.292
9,RRIRIRPPRLPRPRPRPAPYPRP,-0.406
10,RRIRPRPPRLPRPRPRPKYSPRP,-0.55
11,RRIRQRPPRLPRPRPRPSDVPRP,-0.0706
12,RRIRHRPPRLPRPRPRPSRNPRP,-0.134
13,RRIRKRPPRLPRPRPRPTLYPRP,0.0394
14,RRIRTRPPRLPRPRPRPPEAPRP,0.205
15,RRIRGRPPRLPRPRPRPQSTPRP,0.649
16,RRIRSRPPRLPRPRPRPANHPRP,-0.606
17,RRIRQRPPRLPRPRPRPMVKPRP,0.0691
18,RRIRFRPPRLPRPRPRPHKGPRP,-0.0598
19,RRIRLRPPRLPRPRPRPQIDPRP,0.0696
20,RRIRIRPPRLPRPRPRPYAAPRP,-0.563
21,RRIRGRPPRLPRPRPRPMDPPRP,0.00995
22,RRIRYRPPRLPRPRPRPMDRPRP,-0.0498

row,Sequence,shrunken log2 fold change
1,RRIRFRPPRLPRPRPRPDCEPRP,0.175
2,RRIRIRPPRLPRPRPRPKCRPRP,-0.452
3,RRIRIRPPRLPRPRPRPHGDPRP,-0.125
4,RRIRMRPPRLPRPRPRPWDIPRP,0.232
5,RRIRRRPPRLPRPRPRPTKLPRP,0.111
6,RRIRIRPPRLPRPRPRPVPDPRP,-0.0498
7,RRIRCRPPRLPRPRPRPEDWPRP,0.595
8,RRIRPRPPRLPRPRPRPCVPPRP,-0.134
9,RRIRSRPPRLPRPRPRPTAPPRP,0.317
10,RRIRCRPPRLPRPRPRPSYEPRP,-0.374
11,RRIRKRPPRLPRPRPRPDKPPRP,0.128
12,RRIRIRPPRLPRPRPRPKKKPRP,-0.442
13,RRIRNRPPRLPRPRPRPPQFPRP,0.334
14,RRIRYRPPRLPRPRPRPSWNPRP,-1.04
15,RRIRWRPPRLPRPRPRPTQCPRP,0.115
16,RRIRARPPRLPRPRPRPENCPRP,0.177
17,RRIRARPPRLPRPRPRPKPPPRP,0.959
18,RRIRLRPPRLPRPRPRPAETPRP,0.0382
19,RRIRARPPRLPRPRPRPWTSPRP,-0.064
20,RRIRTRPPRLPRPRPRPHSMPRP,-0.665
21,RRIRVRPPRLPRPRPRPQGYPRP,0.0811
22,RRIRIRPPRLPRPRPRPRPKPRP,0.567

row,Sequence,shrunken log2 fold change
1,RRIRSRPPRLPRPRPRPNEAPRP,0.162
2,RRIRPRPPRLPRPRPRPKCVPRP,0.0688
3,RRIRARPPRLPRPRPRPMDEPRP,1.02
4,RRIRDRPPRLPRPRPRPFRHPRP,-0.125
5,RRIRFRPPRLPRPRPRPMARPRP,-0.0235
6,RRIRCRPPRLPRPRPRPYIWPRP,-0.0216
7,RRIRYRPPRLPRPRPRPCFDPRP,-0.808
8,RRIRNRPPRLPRPRPRPAVWPRP,0.583
9,RRIRLRPPRLPRPRPRPYAFPRP,0.0808
10,RRIRWRPPRLPRPRPRPEMMPRP,0.399
11,RRIRMRPPRLPRPRPRPEMGPRP,2.44
12,RRIRNRPPRLPRPRPRPIGHPRP,-0.0117
13,RRIRFRPPRLPRPRPRPQFWPRP,0.206
14,RRIRPRPPRLPRPRPRPMLIPRP,-0.553
15,RRIRQRPPRLPRPRPRPLHPPRP,-0.0917
16,RRIRVRPPRLPRPRPRPRVMPRP,0.188
17,RRIRQRPPRLPRPRPRPDSRPRP,-0.0119
18,RRIRFRPPRLPRPRPRPQFVPRP,-0.434
19,RRIRRRPPRLPRPRPRPYKWPRP,-0.138
20,RRIRGRPPRLPRPRPRPAEMPRP,0.621
21,RRIRARPPRLPRPRPRPWGDPRP,0.376
22,RRIRWRPPRLPRPRPRPHRKPRP,0.113

row,Sequence,shrunken log2 fold change
1,RRIRCRPPRLPRPRPRPGCWPRP,0.569
2,RRIRGRPPRLPRPRPRPFDFPRP,0.26
3,RRIRRRPPRLPRPRPRPKNRPRP,-0.0177
4,RRIRYRPPRLPRPRPRPTMCPRP,-0.159
5,RRIRMRPPRLPRPRPRPCFPPRP,0.157
6,RRIRGRPPRLPRPRPRPEIIPRP,1.5
7,RRIRGRPPRLPRPRPRPNDNPRP,0.19
8,RRIRGRPPRLPRPRPRPWYEPRP,-0.14
9,RRIRLRPPRLPRPRPRPRICPRP,-0.237
10,RRIRVRPPRLPRPRPRPTERPRP,0.302
11,RRIRGRPPRLPRPRPRPWVPPRP,0.0241
12,RRIRIRPPRLPRPRPRPVQQPRP,-0.168
13,RRIRGRPPRLPRPRPRPFPIPRP,0.21
14,RRIRGRPPRLPRPRPRPLFRPRP,0.444
15,RRIRHRPPRLPRPRPRPDQFPRP,-0.441
16,RRIRYRPPRLPRPRPRPKTCPRP,-0.0102
17,RRIRSRPPRLPRPRPRPCKIPRP,-0.177
18,RRIRKRPPRLPRPRPRPMDRPRP,0.0586
19,RRIRSRPPRLPRPRPRPYVWPRP,-0.332
20,RRIRLRPPRLPRPRPRPTVTPRP,-0.0848
21,RRIRERPPRLPRPRPRPQGAPRP,0.169
